Molecular target: SNAP-Protein G
Experiment: titration on hydrogel beads, read by flow cytometry of the beads; SNAP-Protein G covalently immobilised on PHD beads (20 um, 50 uM BG); titration series of fluorescently labelled mouse IgG2b at room temperature with rolling for the indicated times, then washed; mean of triplicates fitted to fluorescence = (fluorescencemax x [IgG])/(KD + [IgG])

- Kd: 30.1 nM
Substance: fluorescently labeled mouse IgG2b (antibody)
